The values that follow come from US20240415886A1 (published 2024).

In the experiment the target is T1, p53 wild type peptide on HLA-A*02:01 (human).
T1 peptide: HMTEVVRRC
Put plainly: activation reporter or marker.

B1: p53R175H peptide specific TCR (the inventive TCR) (TCR, V domains shown)
Valpha: GIQVEQSPPDLILQEGANSTLRCNFSDSVNNLQWFHQNPWGQLINLFYIPSGTKQNGRLSATTVATERYSLLYISSSQTTDSGVYFCAVNQAGTALIFGKGTTLSVSS
Vbeta: EPEVTQTPSHQVTQMGQEVILRCVPISNHLYFYWYRQILGQKVEFLVSFYNNEISEKSEIFDDQFSVERPDGSNFTLKIRSTKLEDSAMYFCASMGTGDEAFFGQGTRLTVV
As for B1, the binding result is reported as “no recognition”.
